Assay results as given in patent US20230181750A1 (CRISPR THERAPEUTICS, published 2023).

B1: mask peptide M3 (peptide)
peptide: CTMPPSPRSKVIC
notes: Selected by phage display (Screen 2, XnCXnCXn library)
B2: mask peptide P2 (peptide)
peptide: HEEVHMRPNKLSLTWAYTGPQLR
notes: Selected by phage display (Screen 1, X15/X19 library)
B3: mask peptide P1 (peptide)
peptide: EVAPGKRWFYNHVKQVPHLV
notes: as for B2

Legend:
anti-PTK7 antibody Ab181 [1] = biological target: T1, anti-PTK7 antibody Ab181; assay: phage display selection against Ab181, XnCXnCXn library
T1 construct: also called unmasked antibody

anti-PTK7 antibody Ab181 [2] = biological target: T1, anti-PTK7 antibody Ab181; assay: phage display selection against Ab181, X15/X19 library

Binder | binding result (anti-PTK7 antibody Ab181 [1]) | binding result (anti-PTK7 antibody Ab181 [2])
CTYPPRFHMHWLC (Selected by phage display (Screen 2)) [mask peptide M13] | binds | 
B1 | binds | 
CTMPYHIHSIGLC (Selected by phage display (Screen 2)) [mask peptide M7] | binds | 
B2 |  | binds
WCTIPSSMSIRLC (Selected by phage display (Screen 2)) [mask peptide M8] | binds | 
B3 |  | binds
CHIGKRPVPCLWI (Selected by phage display (Screen 2)) [mask peptide M9] | binds | 
CTYPSWVAYIRFC (Selected by phage display (Screen 2)) [mask peptide M5] | binds | 
CYIGLRMVPCFHM (Selected by phage display (Screen 2)) [mask peptide M10] | binds | 
CTMPSHAVASFLC (Selected by phage display (Screen 2)) [mask peptide M11] | binds | 
CTHVAQWAIKAFC (Selected by phage display (Screen 2)) [mask peptide M14] | binds | 
VCTYPPAHRTRFC (Selected by phage display (Screen 2)) [mask peptide M6] | binds | 
CTMPVHTYSQWLC (Selected by phage display (Screen 2)) [mask peptide M12] | binds | 
CTFPNTTMQRTFC (Selected by phage display (Screen 2)) [mask peptide M4] | binds | 
